One block for each binder: values may come before it.
Columns and labels:
[1] = target: T1, REV7 (human, UniProt Q9UI95 1-211); assay: crystal structure; SHLD2.3–REV7_(4) complex (peak Q2); hanging drop, 0.1 M Na acetate pH 5.6, 1.5 M Na formate, 20 °C; 3.8 Å; conditions: both partners purified
T1 construct: REV7 (MAD2L2, MAD2B), human, 211 residues; also called MAD2L2; MAD2B; not shown: His6-SUMO, N-terminal, cleaved

[2] = target: the molecule itself; assay: cryo-EM structure; reconstituted complexes with TRIP13(E253Q) and ATPγS, 0.3 mg/mL, Titan Krios 300 kV, RELION3
[3] = target: T2, REV7 (R124A mutant), full-length (human, UniProt Q9UI95 1-211, R124A); assay: SEC-MALS; coexpressed, co-purified SHLD3(35–74)–REV7(R124A) complex; Superdex200 10/300, 20 mM Tris·HCl pH 7.5, 150 mM NaCl, 2 mM DTT; conditions: both partners purified
T2 construct: REV7 (MAD2L2, MAD2B), human, 211 residues, R124A; R124A was introduced to improve crystallization; also called MAD2L2; MAD2B; source: E. coli BL21 CodonPlus(DE3)-RIL, coexpressed with the SHLD3 fragment, purified (HisTrap, HiTrap Q, Superdex 200); not shown: His6-SUMO, N-terminal, cleaved

[4] = target: T2, REV7 (R124A mutant), full-length; assay: crystal structure; coexpressed, co-purified SHLD3s–REV7(R124A) complex; hanging drop, 0.2 M ammonium acetate, 0.1 M Na citrate pH 5.6, 30% PEG4000, 20 °C; 2.7 Å; conditions: both partners purified

T2 sequence (Q9UI95 whole entry R124A, the tested form may be a part): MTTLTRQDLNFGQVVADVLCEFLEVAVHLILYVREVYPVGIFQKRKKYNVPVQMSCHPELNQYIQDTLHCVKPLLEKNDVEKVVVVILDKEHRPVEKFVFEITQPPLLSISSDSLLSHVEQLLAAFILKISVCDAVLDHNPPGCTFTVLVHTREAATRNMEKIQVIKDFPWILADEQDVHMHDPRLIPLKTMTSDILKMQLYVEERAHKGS
T1 sequence (Q9UI95 whole entry): as the sequence (Q9UI95 whole entry R124A, the tested form may be a part) above, with A124R counted along it

B2: TRIP13 catalytic mutant (E253Q) hexamer (enzyme)
chain: MDEAVGDLKQALPCVAESPTVHVEVHQRGSSTAKKEDINLSVRKLLNRHNIVFGDYTWTEFDEPFLTRNVQSVSIIDTELKVKDSQPIDLSACTVALHIFQLNEDGPSSENLEEETENIIAANHWVLPAAEFHGLWDSLVYDVEVKSHLLDYVMTTLLFSDKNVNSNLITWNRVVLLHGPPGTGKTSLCKALAQKLTIRLSSRYRYGQLIEINSHSLFSKWFSESGKLVTKMFQKIQDLIDDKDALVFVLIDQVESLTAARNACRAGTEPSDAIRVVNAVLTQIDQIKRHSNVVILTTSNITEKIDVAFVDRADIKQYIGPPSAAAIFKIYLSCLEELMKCQIIYPRQQLLTLRELEMIGFIENNVSKLSLLLNDISRKSEGLSGRVLRKLPFLAHALYVQAPTVTIEGFLQALSLAVDKQFEERKKLAAYI
notes: TRIP13, AAA+ ATPase, E253Q; used with ATPγS; also called TRIP13(E253Q); TRIP13 (E253Q); source: E. coli BL21 CodonPlus(DE3)-RIL, purified (HiTrap Q, Superdex 200)
stoichiometry N [2]: 6

B3: SHLD3 35- to 74-residue fragment (domain or fragment, human, UniProt Q6ZNX1 35-74, looked up)
chain: LSRFIPWFPYDGSKLPLRPKRSPPVISEEAAEDVKQYLTI
notes: SHLD3, human, 250 residues; residues 35-74; also called SHLD3_(35–74); source: E. coli, coexpressed with REV7(R124A), purified as the complex
binding result [3]: binds

The remaining lines, values ahead:

binding result [1]: binds
B1: SHLD2 fragment (residues 1 to 19), the SHLD2 part of SHLD2.3 (domain or fragment, human, UniProt Q86V20 1-19, looked up)
chain: MSGGSQVHIFWGAPIAPLK
notes: In the crystal it stood on one chain with SHLD3(1-58); written apart for the SHLD2–SHLD3 and SHLD2–REV7 contacts; also called SHLD2(residues 1 to 19); source: E. coli BL21 CodonPlus(DE3)-RIL, as part of the SHLD2.3 fusion chain, purified with REV7

binding result [4]: binds
B4: SHLD3s fusion protein (SHLD3 residues 35 to 58 and REV3 residues 1887 to 1894) (other, UniProt Q6ZNX1 35-58, looked up)
chain: LSRFIPWFPYDGSKLPLRPKRSPPREEIMATL
notes: SHLD3, human, residues 35-58; also called SHLD3_(35–58)
